In the RNAGym collection of RNA variant scans (doi:10.1093/nar/gkz1192):

B1: CPEB3 Ribozyme (parent)
chain: UAACAGGGGGCCACAGCAGAAGCGUUCACGUCGCAGCCCCUGUCAGAUUCUGGUGAAUCUGCGAAUUCUGCUGUAUAUCUC

Variants of: B1
Assay: self-cleavage, relative activity (ratio to wild type); higher = more cleavage; in vitro, sequencing
Procedure, shortened: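 Barcoded CPEB3 ribozyme mutants, produced by rounds of error-prone PCR, self-cleaved while being transcribed with T7 RNA polymerase for 5 hours at 37°C and during a subsequent 15 min DNase I step before EDTA was added. Sequencing of template-switched cDNA on Illumina gave cleaved and total reads, and DNA sequencing assigned barcodes to variants. Each variant's relative activity is its cleaved/total read fraction divided by the unmutated ribozyme's fraction, averaged across three batches. A variant needed a minimum of 5 reads.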

Point of comparison: G8U C62U, self-cleavage 0.12. Against it:
- G8C U67C — higher, 0.15
- G8C U67G — higher, 0.15
- G8C U69C — higher, 0.22
- G8C U76C — higher, 0.4
- G8C U78C — lower, 0.07
- G8C U80G — higher, 0.24
- G8U — higher, 0.23
- G8U A13G — higher, 0.28
- G8U A13U — higher, 0.3
- G8U A15G — higher, 0.24
- G8U A15U — higher, 0.4
- G8U A18G — higher, 0.14
- G8U A18U — higher, 0.16
- G8U A20G — higher, 0.17
- G8U A21U — higher, 0.17
- G8U A28G — higher, 0.14
- G8U A28U — lower, 0.09
- G8U A35U — higher, 0.27
- G8U A45G — higher, 0.14
- G8U A47G — higher, 0.13
- G8U A56U — higher, 0.14
- G8U A64C — the same, 0.12
- G8U A64G — higher, 0.2
- G8U A64U — lower, 0.08
- G8U A65G — higher, 0.34
- G8U A65U — higher, 0.43
- G8U A75G — the same, 0.12
- G8U A75U — higher, 0.35
- G8U A77U — higher, 0.14
- G8U C11U — lower, 0.1
- G8U C12U — higher, 0.3
- G8U C14U — lower, 0.06
- G8U C29U — higher, 0.25
- G8U C32U — higher, 0.14
- G8U C37U — higher, 0.17
- G8U C38U — lower, 0.04
- G8U C39U — lower, 0.08
- G8U C40U — lower, 0.11
- G8U C59U — lower, 0.1
- G8U C71G — lower, 0.07
- G8U C79U — lower, 0.04
- G8U G9A — higher, 0.33
- G8U G10A — higher, 0.39
- G8U G19C — higher, 0.23
- G8U G22A — the same, 0.12
- G8U G24A — higher, 0.16
- G8U G24U — higher, 0.13
- G8U G33A — lower, 0.08
- G8U G33U — lower, 0.1
- G8U G36A — lower, 0.1
- G8U G46U — higher, 0.19
- G8U G52A — higher, 0.21
- G8U G52U — higher, 0.21
- G8U G53A — higher, 0.2
- G8U G53U — the same, 0.12
- G8U G55U — higher, 0.2
- G8U G63A — lower, 0.07
- G8U G73C — higher, 0.5
- G8U U25C — the same, 0.12
- G8U U26A — lower, 0.07
- G8U U26C — higher, 0.14
- G8U U31A — higher, 0.18
- G8U U31C — lower, 0.11
- G8U U41A — higher, 0.19
- G8U U41C — the same, 0.12
- G8U U41G — higher, 0.39
- G8U U48C — higher, 0.38
- G8U U49A — higher, 0.28
- G8U U49C — higher, 0.22
- G8U U51A — lower, 0.08
- G8U U51C — lower, 0.08
- G8U U54A — lower, 0.07
- G8U U54C — higher, 0.14
- G8U U58A — higher, 0.32
- G8U U58C — lower, 0.1
- G8U U60A — lower, 0.07
- G8U U60C — higher, 0.17
- G8U U60G — lower, 0.06
- G8U U66G — higher, 0.13
- G8U U67A — higher, 0.19
- G8U U67C — higher, 0.23
- G8U U69A — the same, 0.12
- G8U U69C — lower, 0.09
